# Test results published in patent US10287344B2, “Methods for reducing global chronic inflammation and the presence of melanoma” (Mayo Foundation for Medical Education and Research, priority 2008, dated 2019).
# Tested on: PBMC from healthy donors
# Assay: VEGF mediated Th1/Th2 polarity: PBMC stimulated 3 days with CD3/CD28 expander beads, intracellular IFN-γ/IL-4 in CD4+ T-cells
# Assay type: cell-based, human
# Details: 10 μg/mL IL-12 added to culture containing 16 pg/mL of VEGF
# Method: PBMC (A) isolated from healthy donors were stimulated with PMA and ionomycin in the presence of brefeldin-A, permeabolized, and intracellularly stained for human IFN-γ (FITC) and human IL-4 (PE). PBMC were exposed to increasing concentrations of VEGF ([…]) without/with IL-12. All cells were immunostained with PC5 anti-human CD4. Purified CD4+ T-cells (B) were negatively isolated using Miltenyi beads, cultured, and stained in the same fashion as PBMC (A).
# To determine the effect of VEGF on Th1 and Th2 polarity, PBMC from healthy donors were stimulated for 3 days with CD3/CD28 expander beads (Invitrogen Oslo, Norway) with and without increasing doses of recombinant VEGF (1-16 pg/mL). Cells were also cultured with 10 μg/mL recombinant human IL-12 (R and D Systems, Minneapolis, Minn.) or 8 μg/mL of a monoclonal anti-human IL-12 (R and D Systems Minneapolis, Minn. clone #24910). […]
# In addition, healthy donor PBMC were stimulated with CD3^+/CD28^+ expander micro-beads for 3 days with increasing concentrations (1 pg/mL-16 pg/mL) of recombinant VEGF and assessed intracellular cytokine production of IL-4 (Th2 cytokine) and IFN-γ (Th1 cytokine) in CD4^+ T-cells at the end of in vitro culture (FIG. 8a).
molecule,measurement,value
"IL-12: recombinant human IL-12 (R and D Systems) (protein, UniProt P29459 23-219; P29460 23-328, looked up) Interleukin-12 subunit alpha: RNLPVATPDPGMFPCLHHSQNLLRAVSNMLQKARQTLEFYPCTSEEIDHEDITKDKTSTVEACLPLELTKNESCLNSRETSFITNGSCLASRKTSFMMALCLSSIYEDLKMYQVEFKTMNAKLLMDPKRQIFLDQNMLAVIDELMQALNFNSETVPQKSSLEEPDFYKTKIKLCILLHAFRIRAVTIDRVMSYLNAS Interleukin-12 subunit beta: IWELKKDVYVVELDWYPDAPGEMVVLTCDTPEEDGITWTLDQSSEVLGSGKTLTIQVKEFGDAGQYTCHKGGEVLSHSLLLLHKKEDGIWSTDILKDQKEPKNKTFLRCEAKNYSGRFTCWWLTTISTDLTFSVKSSRGSSDPQGVTCGAATLSAERVRGDNKEYEYSVECQEDSACPAAEESLPIEVMVDAVHKLKYENYTSSFFIRDIIKPDPPKNLQLKPLKNSRQVEVSWEYPDTWSTPHSYFSLTFCVQVQGKSKREKKDRVFTDKTSATVICRKNASISVRAQDRYYSSSWSEWASVPCS",shift in T-helper polarity in culture containing VEGF,prevented the shift in T-helper polarity from Th1 to Th2
